Numbering of substitutions follows the chain as printed.
What was measured:
Assay in all cases: SEC; two proteins co-produced in insect cells, both Strep-tagged; StrepTactin capture, then SEC on Superdex S200 in 10 mM TRIS-HCl pH 8.0, 300 mM NaCl, 2 mM DTT; co-purification of wt and variant complexes
Conditions in all cases: both partners purified
Snu114^72-1008 K146A = target: T1, Snu114^72-1008 K146A (yeast, UniProt P36048 72-1008, K146A)
T1 construct: Insoluble when produced alone; also called Snu114^K146A; source: insect cells, co-produced with Prp8^SBR; complex purified; not shown: Strep tag (from the vector pIDS-C-Strep), C-terminal, kept
T1 sequence (looked up): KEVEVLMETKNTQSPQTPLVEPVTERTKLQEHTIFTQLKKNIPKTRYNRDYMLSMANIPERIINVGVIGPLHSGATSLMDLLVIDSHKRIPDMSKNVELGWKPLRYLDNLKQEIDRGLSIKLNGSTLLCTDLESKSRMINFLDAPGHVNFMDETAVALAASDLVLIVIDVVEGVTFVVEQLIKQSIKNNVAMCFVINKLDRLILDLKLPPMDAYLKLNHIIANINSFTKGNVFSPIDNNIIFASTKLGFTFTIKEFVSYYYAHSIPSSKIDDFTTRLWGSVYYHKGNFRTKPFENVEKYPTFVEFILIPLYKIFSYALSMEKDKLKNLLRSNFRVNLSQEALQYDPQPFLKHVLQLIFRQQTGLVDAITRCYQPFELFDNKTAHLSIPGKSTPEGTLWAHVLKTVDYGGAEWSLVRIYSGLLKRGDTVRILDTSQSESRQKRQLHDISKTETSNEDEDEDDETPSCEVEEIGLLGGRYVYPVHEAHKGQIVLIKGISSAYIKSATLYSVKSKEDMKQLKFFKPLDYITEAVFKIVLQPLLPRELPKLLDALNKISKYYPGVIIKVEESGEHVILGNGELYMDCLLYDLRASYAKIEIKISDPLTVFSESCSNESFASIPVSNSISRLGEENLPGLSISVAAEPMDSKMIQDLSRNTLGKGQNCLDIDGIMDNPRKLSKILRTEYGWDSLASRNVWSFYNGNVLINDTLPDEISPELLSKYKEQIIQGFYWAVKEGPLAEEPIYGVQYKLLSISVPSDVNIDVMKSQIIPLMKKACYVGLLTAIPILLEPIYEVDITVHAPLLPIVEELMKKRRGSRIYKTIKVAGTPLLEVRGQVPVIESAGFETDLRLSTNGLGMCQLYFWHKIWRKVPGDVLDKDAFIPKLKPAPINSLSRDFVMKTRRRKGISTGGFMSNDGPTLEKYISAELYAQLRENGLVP

Snu114^72-1008 S190A = target: T2, Snu114^72-1008 S190A (yeast, UniProt P36048 72-1008, S190A)
T2 construct: Insoluble when produced alone; also called Snu114^S190A; source: insect cells, co-produced with Prp8^SBR; complex purified; not shown: Strep tag (from the vector pIDS-C-Strep), C-terminal, kept
T2 sequence (looked up): T1 sequence (looked up) with A75K, S119A

[1] = target: T3, Snu114^72-1008 (yeast Snu114 lacking the acidic N-terminal region) (yeast, UniProt P36048 72-1008)
T3 construct: synthetic gene; Co-purifies with endogenous GTP; source: insect cells (MultiBac baculovirus); co-produced with Prp8 constructs or alone; purified (StrepTactin, SEC); not shown: Strep tag (from the vector pIDS-C-Strep), C-terminal, kept
T3 sequence (looked up): T1 sequence (looked up) with A75K

binding result (Snu114^72-1008 K146A): binds
binding result (Snu114^72-1008 S190A): binds
binding result [1]: binds
B1: Prp8^SBR (Prp8 Snu114-binding region, Prp8 residues 315-555), recombinant (domain or fragment, yeast, UniProt P33334 315-555, looked up)
chain: STPLRDEVTDKNYYYLFDKKSFFNGKALNNAIPGGPKFEPLYPREEEEDYNEFNSIDRVIFRVPIRSEYKVAFPHLYNSRPRSVRIPWYNNPVSCIIQNDEEYDTPALFFDPSLNPIPHFIDNNSSLNVSNTKENGDFTLPEDFAPLLAEEEELILPNTKDAMSLYHSPFPFNRTKGKMVRAQDVALAKKWFLQHPDEEYPVKVKVSYQKLLKNYVLNELHPTLPTNHNKTKLLKSLKNTK
notes: Could not be produced alone; In the crystal residues 367-533 were modelled (416-419 and 435-449 without density); also called wt Prp8^SBR; Prp8^SBP; source: complex purified (StrepTactin, SEC); not shown: Strep tag (from the vector pFL-N-Strep), N-terminal, kept

Source: publication PMC7192624, “A Snu114–GTP–Prp8 module forms a relay station for efficient splicing in yeast” (Nucleic Acids Research, 2020)
